The record followed here is patent publication US6355611B1, “Salt form of a conjugate useful in the treatment of prostate cancer” (Merck & Co., Inc., priority 1999, dated 2002).

A word on the solubility: it is the concentration that dissolves in the medium under given conditions.

≈ marks a conversion by molar mass, not a printed value. Like-named read-outs stand apart in the source and are kept apart here. Starred links: 1 amine or outer side, 2 acyl side, 3 side chain; linkers in the order of their positions; H or OH if unused. Non-standard residues stand in square brackets, D forms with d. Residues, ends and D or L forms follow the SMILES beside them. ξ: configuration not given here. *: point of attachment. X1 = COc1cccc2c1C(=O)c1c(O)c3c(c(O)c1C2=O)C[C@@](O)(C(=O)CO)C[C@@H]3OC1CC(N*)C(O)C(C)O1; X2 = COc1cccc2c1C(=O)c1c(O)c3c(c(O)c1C2=O)CC(O)(C(=O)CO)CC3OC1CC(N*)C(O)C(C)O1; Glutaryl = O=C(CCCC(=O)[*:2])[*:1]; Hyp = O=C(O)[C@@H]1C[C@@H](O)CN1; Chg = N[C@H](C(=O)O)C1CCCCC1; ξChg = NC(C(=O)O)C1CCCCC1; ξHyp = O=C(O)C1CC(O)CN1; ξS = NC(CO)C(=O)O; ξA = CC(N)C(=O)O Bounds are passed on as bounds.

Format in all cases: physicochemical
The nature of data set [1]: Solubility in water at room temperature. The source says:
(§1) It has further been discovered that the sodium salt of the Formula 5 offers advantages with respect to dissolution in water.
It has further been discovered that the lyophilized formulation offers advantages with respect to dissolution in water.

Data set [2] can be described thus: Thermal / storage stability. Conditions: sodium salt compared with free acid. As to the method:
(§2) An aqueous solution of the sodium salt of the instant invention has a pH of greater than 5.0. It has been discovered that the bond between the sugar moiety of doxorubicin and the tetracyclic doxorubicinone moiety is more readily cleaved at aqueous pH of less than 4.0. Therefore the sodium salt offers clear formulation advantages over the free acid, which has an unbuffered aqueous pH of less than 4.0.
In particular, the lyophilized formulation is prepared by the addition of a salt of a carboxylic acid to an aqueous solution of the previously described free acid compound 4. The amount of carboxylate salt that is added to the prelyophilization solution of the compound of formula 4 is from about 3 molar equivalents of base of trisodium citrate per mole of compound 4 to about 9 molar equivalents of base per mole of compound 4. Preferably, the amount of salt that is added is about 5 molar equivalents of base per mole of compound 4.

Another data set is described as follows: pH of aqueous solution. Conditions: unbuffered aqueous solution.
Excerpt: as §2

Data set [3] in a line: Aggregate formation on dissolution in water (filtration through 0.22μ filter).
Excerpt: as §1

For `COc1cccc2c1C(=O)c1c(O)c3c(c(O)c1C2=O)C[C@@](O)(C(=O)CO)C[C@@H]3OC1CC(NC(=O)[C@H](CC(C)C)NC(=O)[C@H](CO)NC(=O)[C@H](CCC(N)=O)NC(=O)[C@@H](NC(=O)[C@H](CO)NC(=O)[C@H](C)NC(=O)[C@@H]2C[C@@H](O)CN2C(=O)CCCC(=O)O)C2CCCCC2)C(O)C(C)O1` (stereo partly drawn) [Compound 4, [N-Glutaryl-(4-trans-L-Hyp)]-Ala-Ser-Chg-Gln-Ser-Leu-Dox] (Glutaryl-[Hyp]AS[Chg]QSL-X1), the solubility was 13.8 mg/mL of water in data set [1]; 3.98 mg/mL (≈ 2850 µM) in data set [1] (pH 2.35); > 156 mg/mL in data set [1] (pH 5.72, water).

In the case of `COc1cccc2c1C(=O)c1c(O)c3c(c(O)c1C2=O)CC(O)(C(=O)CO)CC3OC1CC(NC(=O)[C@H](CC(C)C)NC(=O)C(CO)NC(=O)[C@H](CCC(N)=O)NC(=O)C(NC(=O)C(CO)NC(=O)C(C)NC(=O)C2CC(O)CN2C(=O)CCCC(=O)[O-])C2CCCCC2)C(O)C(C)O1.[Na+]` (stereo partly drawn) [Compound 5, [N-Glutaryl-(4-trans-L-Hyp)]-Ala-Ser-Chg-Gln-Ser-Leu-Dox Sodium salt] (Glutaryl-[ξHyp][ξA][ξS][ξChg]Q[ξS]L-X2), the thermal stability entry in data set [2] is given as “more thermally stable than the corresponding free acid compound”. In addition, the solubility in data set [1] (room temperature, water, read-out: solubility) was > 277 mg/mL. Moreover, in the data set “pH of aqueous solution”, the “pH of aqueous solution” value was “greater than 5.0”. In addition, the “formation of aggregates on dissolution in water” value in data set [3] is “dissolves in water without forming aggregates”.
